Results as given in patent publication US20220380407A1.

Legend:
Assay in all cases: cell-based or functional assay
[1] = biological target: Factor Xa (#1063-SE-010, R&D Systems) (UniProt P00742)
[2] = biological target: activated hepsin (#4776-SE-010, R&D Systems) (UniProt P05981)
human TMPRSS2 (human) = human TMPRSS2 (human) (UniProt O15393)
[3] = biological target: matriptase (#3946-SE-010, R&D Systems) (UniProt Q9Y5Y6)
[4] = biological target: recombinant N-terminal His-tag HGFA serine protease domain (UniProt Q04756)
[5] = biological target: recombinant thrombin (#1473-SE-010, R&D Systems) (UniProt P00734)
[6] = biological target: KLK5 (#1108-SE-010, R&D Systems) (UniProt Q9Y337)
Sequence of KLK5 (#1108-SE-010, R&D Systems) (Q9Y337 23-293 limits assumed): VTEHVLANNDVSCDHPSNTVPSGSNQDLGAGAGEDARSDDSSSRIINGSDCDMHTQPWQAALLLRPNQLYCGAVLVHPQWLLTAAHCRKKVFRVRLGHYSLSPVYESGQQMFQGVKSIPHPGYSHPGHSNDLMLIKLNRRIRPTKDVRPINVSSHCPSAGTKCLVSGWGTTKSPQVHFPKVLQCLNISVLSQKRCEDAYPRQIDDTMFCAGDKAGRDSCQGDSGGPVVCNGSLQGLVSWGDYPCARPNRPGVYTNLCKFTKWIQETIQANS

Sequence of matriptase (#3946-SE-010, R&D Systems) (Q9Y5Y6 615-855 limits assumed): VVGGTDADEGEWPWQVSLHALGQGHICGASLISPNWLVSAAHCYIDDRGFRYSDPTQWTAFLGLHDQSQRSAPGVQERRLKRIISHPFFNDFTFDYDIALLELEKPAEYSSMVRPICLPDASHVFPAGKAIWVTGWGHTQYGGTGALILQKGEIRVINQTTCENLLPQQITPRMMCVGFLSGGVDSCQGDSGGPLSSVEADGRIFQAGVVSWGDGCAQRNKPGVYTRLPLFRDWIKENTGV
Sequence of activated hepsin (#4776-SE-010, R&D Systems) (P05981 45-417 limits assumed): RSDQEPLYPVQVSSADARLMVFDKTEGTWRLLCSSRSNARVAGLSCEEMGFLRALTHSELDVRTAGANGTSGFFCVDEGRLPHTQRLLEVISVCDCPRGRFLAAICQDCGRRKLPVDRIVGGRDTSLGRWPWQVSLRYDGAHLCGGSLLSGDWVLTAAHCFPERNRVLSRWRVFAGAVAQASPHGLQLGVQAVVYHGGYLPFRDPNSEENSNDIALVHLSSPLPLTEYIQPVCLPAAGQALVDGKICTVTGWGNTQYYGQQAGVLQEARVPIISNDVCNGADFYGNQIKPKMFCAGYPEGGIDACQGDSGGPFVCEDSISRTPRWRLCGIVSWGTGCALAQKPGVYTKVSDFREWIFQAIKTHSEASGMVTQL
Sequence of recombinant N-terminal His-tag HGFA serine protease domain (Q04756 373-655, form in doubt): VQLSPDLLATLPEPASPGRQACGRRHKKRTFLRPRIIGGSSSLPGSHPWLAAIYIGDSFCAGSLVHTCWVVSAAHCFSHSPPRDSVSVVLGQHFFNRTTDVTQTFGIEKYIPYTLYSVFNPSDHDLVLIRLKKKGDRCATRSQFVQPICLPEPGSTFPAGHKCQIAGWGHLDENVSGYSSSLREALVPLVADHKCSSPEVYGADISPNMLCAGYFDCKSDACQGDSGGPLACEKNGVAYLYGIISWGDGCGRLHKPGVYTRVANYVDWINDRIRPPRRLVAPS
Sequence of human TMPRSS2 (human) (O15393 whole entry): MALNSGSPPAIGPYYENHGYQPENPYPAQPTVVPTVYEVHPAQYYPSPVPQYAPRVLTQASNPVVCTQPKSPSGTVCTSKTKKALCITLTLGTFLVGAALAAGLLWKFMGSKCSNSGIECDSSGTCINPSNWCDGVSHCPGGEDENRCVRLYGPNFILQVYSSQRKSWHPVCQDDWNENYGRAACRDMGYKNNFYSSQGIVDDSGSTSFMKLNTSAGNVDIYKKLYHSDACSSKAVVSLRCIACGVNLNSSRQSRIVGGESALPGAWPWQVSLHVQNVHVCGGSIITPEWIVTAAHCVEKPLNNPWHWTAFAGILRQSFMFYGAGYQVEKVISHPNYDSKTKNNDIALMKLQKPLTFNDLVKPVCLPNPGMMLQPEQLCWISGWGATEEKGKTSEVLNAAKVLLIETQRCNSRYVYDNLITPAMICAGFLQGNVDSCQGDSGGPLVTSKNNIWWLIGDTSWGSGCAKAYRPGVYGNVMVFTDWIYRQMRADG
Sequence of Factor Xa (#1063-SE-010, R&D Systems) (P00742 41-488 limits assumed): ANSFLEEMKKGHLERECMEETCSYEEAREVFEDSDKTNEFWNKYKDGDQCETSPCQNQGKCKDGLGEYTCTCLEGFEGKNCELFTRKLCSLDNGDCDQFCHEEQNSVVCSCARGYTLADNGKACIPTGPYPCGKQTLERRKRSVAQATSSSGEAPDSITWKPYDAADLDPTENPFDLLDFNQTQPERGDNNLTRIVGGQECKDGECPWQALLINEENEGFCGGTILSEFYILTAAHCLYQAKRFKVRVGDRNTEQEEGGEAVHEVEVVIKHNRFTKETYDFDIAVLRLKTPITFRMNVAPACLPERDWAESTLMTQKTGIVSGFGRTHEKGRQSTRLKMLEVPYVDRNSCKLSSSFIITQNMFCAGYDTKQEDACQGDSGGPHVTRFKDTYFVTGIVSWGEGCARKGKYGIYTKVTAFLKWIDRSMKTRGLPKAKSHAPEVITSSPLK

Substance	Factor Xa* (IC50 nM) [1] [nM]	Hepsin (IC50 nM) [2] [nM]	Hepsin IC50 [2] [nM]	Calu-3 EC50 (human TMPRSS2 (human)) [nM]	Matriptase (IC50 nM) [3] [nM]	Matriptase IC50 [3] [nM]	HGFA (IC50 nM) [4] [nM]	HGFA IC50 [4] [nM]	Thrombin* (IC50 nM) [5] [nM]	KLK5 IC50 [6] [nM]
Cyclo(allylLY)R-kbt, VD4051 (peptide)	8810	102	20	565	80.2	14	> 20000	> 20000	> 20000	–
Leupeptin (peptide)	–	–	–	–	–	–	–	–	–	> 20000
